Laboratory results as given in patent US20250000946A1 (WUXI BIOLOGICS IRELAND, published 2025).
Substitutions are numbered along the chain they refer to. In names and notes the source's numbering stands. Like-named read-outs stand apart in the source and are kept apart here.

T1: Human IL-2Rβ/γ (intermediate affinity IL-2 receptor) (human, UniProt P14784 27-551; P31785 23-369)
T1 construct: whole, on cells; also called IL-2Rβ/γc; IL-2Rβ (CD122) and γ (CD132)
T1 sequence (looked up) 1: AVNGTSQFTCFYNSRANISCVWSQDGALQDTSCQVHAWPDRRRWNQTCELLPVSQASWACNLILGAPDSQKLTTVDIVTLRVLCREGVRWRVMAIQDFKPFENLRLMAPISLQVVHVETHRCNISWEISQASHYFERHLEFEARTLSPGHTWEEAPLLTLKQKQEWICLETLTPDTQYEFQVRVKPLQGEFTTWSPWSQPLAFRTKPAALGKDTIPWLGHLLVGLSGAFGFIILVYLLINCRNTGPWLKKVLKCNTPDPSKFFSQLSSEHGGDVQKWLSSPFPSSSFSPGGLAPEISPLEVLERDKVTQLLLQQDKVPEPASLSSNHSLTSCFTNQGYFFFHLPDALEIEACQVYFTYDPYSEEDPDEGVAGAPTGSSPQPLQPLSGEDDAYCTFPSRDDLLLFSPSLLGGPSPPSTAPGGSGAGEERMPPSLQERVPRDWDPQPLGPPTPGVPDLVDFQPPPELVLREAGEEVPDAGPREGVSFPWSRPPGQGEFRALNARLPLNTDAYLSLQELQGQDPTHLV
T1 sequence (looked up) 2: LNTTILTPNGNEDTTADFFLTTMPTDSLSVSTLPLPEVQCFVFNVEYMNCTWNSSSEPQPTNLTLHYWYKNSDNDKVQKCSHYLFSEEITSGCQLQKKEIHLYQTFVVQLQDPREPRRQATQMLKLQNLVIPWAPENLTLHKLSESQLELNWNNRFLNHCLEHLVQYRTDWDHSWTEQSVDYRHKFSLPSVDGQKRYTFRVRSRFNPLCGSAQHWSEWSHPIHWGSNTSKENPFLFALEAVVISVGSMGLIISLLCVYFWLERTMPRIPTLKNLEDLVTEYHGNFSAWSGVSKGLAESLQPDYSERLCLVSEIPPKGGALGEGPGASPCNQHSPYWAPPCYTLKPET

T2: Human IL-2Rα/β/γ complex (high affinity IL-2 receptor) (human, UniProt P01589 22-272; P14784 27-551; P31785 23-369)
T2 construct: whole, on cells
T2 sequence (looked up) 1: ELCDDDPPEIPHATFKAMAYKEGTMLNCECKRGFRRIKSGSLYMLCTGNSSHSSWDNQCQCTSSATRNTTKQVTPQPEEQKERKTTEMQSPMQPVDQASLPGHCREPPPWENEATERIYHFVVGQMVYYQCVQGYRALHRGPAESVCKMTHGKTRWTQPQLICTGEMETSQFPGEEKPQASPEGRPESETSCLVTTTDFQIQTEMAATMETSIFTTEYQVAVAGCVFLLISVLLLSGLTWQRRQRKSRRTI
T2 sequence (looked up) 2: T1 sequence (looked up) 1
T2 sequence (looked up) 3: T1 sequence (looked up) 2

B1: W3XX115-T2U0.E44-15.uIgG4V1 (Fc fusion)
chain: APTSSSTKKTQLQLEHLLLDLQMILNGINNYKNPKLTRMLTVKFYMPKKATELKHLQCLEEELKPLEEVLNLAQSKNFHLRPRDLISNINVIVLELKGSETTFMCEYADETATIVEFLNRWITFCQSIIESKYGPPCPPCPAPEFLGGPSVFLFPPKPKDTLMISRTPEVTCVVVDVSQEDPEVQFNWYVDGVEVHNAKTKPREEQFNSTYRVVSVLTVLHQDWLNGKEYKCKVSNKGLPSSIEKTISKAKGQPREPQVYTLPPCQEEMTKNQVSLWCLVKGFYPSDIAVEWESNGQPENNYKTTPPVLDSDGSFFLYSRLTVDKSRWQEGNVFSCSVMHEALHNHYTQKSLSLSLG
heavy: EIQLQQSGPELVKPGASVKVSCKASGYSFTDYNMYWVKQSHGESLEWIGYIDPYNGGTRYNQKFKGKATLTVDKSSSTAFMHLNSLTSEDSAVYYCARNGHWDGAWFAYWGQGTLVTVSAASTKGPSVFPLAPCSRSTSESTAALGCLVKDYFPEPVTVSWNSGALTSGVHTFPAVLQSSGLYSLSSVVTVPSSSLGTKTYTCNVDHKPSNTKVDKRVESKYGPPCPPCPAPEFLGGPSVFLFPPKPKDTLMISRTPEVTCVVVDVSQEDPEVQFNWYVDGVEVHNAKTKPREEQFNSTYRVVSVLTVLHQDWLNGKEYKCKVSNKGLPSSIEKTISKAKGQPREPQVCTLPPSQEEMTKNQVSLSCAVKGFYPSDIAVEWESNGQPENNYKTTPPVLDSDGSFFLVSRLTVDKSRWQEGNVFSCSVMHEALHNHYTQKSLSLSLG
light: DIQMNQSPSSLSASLGDTITITCHASQNINVWLSWYQQKPGNIPKLLIYKASNLHTGVPSRFSGSRSGTGFTLTISSLQPEDIATYYCHQGQSYPFTFGSGTKLEIKRTVAAPSVFIFPPSDEQLKSGTASVVCLLNNFYPREAKVQWKVDNALQSGNSQESVTEQDSKDSTYSLSSTLTLSKADYEKHKVYACEVTHQGLSSPVTKSFNRGEC
notes: IL-2 del STLT and F42V; E44 format, IgG4
B2: W3XX115-T2U0.E44-16.uIgG4V1 (Fc fusion)
chain: B1 chain with V42I
heavy: B1 heavy
light: B1 light
notes: IL-2 del STLT and F42I; E44 format, IgG4
B3: W3XX115-T2U0.E44-19.uIgG4V1 (Fc fusion)
chain: B1 chain with V42M
heavy: B1 heavy
light: B1 light
notes: IL-2 del STLT and F42M; E44 format, IgG4
B4: W3XX115-T2U0.E44-20.uIgG4V1 (Fc fusion)
chain: B1 chain with R38W, V42F
heavy: B1 heavy
light: B1 light
notes: IL-2 del STLT and R38W; E44 format, IgG4
B5: W3XX115-T2U0.E44-34.uIgG4V322 (Fc fusion)
chain: B1 chain with V42F, S127A, F145A, L146A
heavy: B1 heavy with F234A, L235A
light: B1 light
notes: IL-2 del STLT and S127A; E44 format, IgG4 FALA
B6: W3XX115-T2U0.E44-35.uIgG4V322 (Fc fusion)
chain: B1 chain with V42F, S127T, F145A, L146A
heavy: B1 heavy with F234A, L235A
light: B1 light
notes: IL-2 del STLT and S127T; E44 format, IgG4 FALA
B7: W3XX115-T2U0.E44-36.uIgG4V322 (Fc fusion)
chain: B1 chain with V42F, S127D, F145A, L146A
heavy: B1 heavy with F234A, L235A
light: B1 light
notes: IL-2 del STLT and S127D; E44 format, IgG4 FALA
B8: W3XX115-T2U0.E44-38.uIgG4V322 (Fc fusion)
chain: B1 chain with V42F, C125A, F145A, L146A
heavy: B1 heavy with F234A, L235A
light: B1 light
notes: IL-2 del STLT and C125A; E44 format, IgG4 FALA
B9: W3XX115-T2U0.E44-39.uIgG4V322 (Fc fusion)
chain: B1 chain with V42F, I128A, F145A, L146A
heavy: B1 heavy with F234A, L235A
light: B1 light
notes: IL-2 del STLT and I128A; E44 format, IgG4 FALA

Assays:
[1] = target: T1, Human IL-2Rβ/γ (intermediate affinity …); assay: FACS, HH cells
Procedure: (§1) Human cutaneous T cell lymphoma HH cells, malignant non-Hodgkin's lymphoma NK92 cells and cutaneous T cell lymphoma MJ20 cells were used for binding assay. They both constitutively express IL-2Rβ (CD122) and […] (CD132), and NK92 and MJ20 also expresses IL-2Rα (CD25). HH, NK92 and MJ20 cells were cultured following ATCC guidance, then transferred to a 96-plate for binding analysis. Cells were incubated with IL-2/Fc fusion proteins at the indicated concentrations for 30 min at 4° C. to avoid internalization. Binding was detected by 2nd antibody of PE-anti-human Fc at 4° C. for another 30 min. The median fluorescence intensity (MFI) on HH and NK92 cells was measured using FACS.

[2] = target: T2, Human IL-2Rα/β/γ complex (high affinity …); assay: FACS, NK92 cells
In short: (§2)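 Surface binding of IL-2/Fc fusion proteins at 4° C. (30 min, no internalization) on lymphoma lines HH (CD122/CD132 only), NK92 and MJ20 (plus CD25); secondary PE-anti-human Fc; MFI by FACS.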

[3] = target: T1, Human IL-2Rβ/γ (intermediate affinity …); assay: cell-based or functional assay
[4] = target: T2, Human IL-2Rα/β/γ complex (high affinity …); assay: cell-based or functional assay
[5] = target: T1, Human IL-2Rβ/γ (intermediate affinity …); assay: FACS, HH cells; EC50 fold vs T2U0.E44-1
Procedure: as §1

[6] = target: T2, Human IL-2Rα/β/γ complex (high affinity …); assay: FACS, NK92 cells; EC50 fold vs T2U0.E44-1
In short: as §2

[7] = target: T1, Human IL-2Rβ/γ (intermediate affinity …); assay: FACS, HH cells; remark: listed apart in the source
In short: as §2

[8] = target: T2, Human IL-2Rα/β/γ complex (high affinity …); assay: FACS, MJ20 cells
Procedure: as §1

[9] = target: T1, Human IL-2Rβ/γ (intermediate affinity …); assay: cell-based or functional assay; remark: listed apart in the source
[10] = target: T2, Human IL-2Rα/β/γ complex (high affinity …); assay: cell-based or functional assay; remark: listed apart in the source
[11] = target: T1, Human IL-2Rβ/γ (intermediate affinity …); assay: FACS, HH cells; EC50 fold vs T2U0.E44-1; remark: listed apart in the source
In short: as §2

[12] = target: T2, Human IL-2Rα/β/γ complex (high affinity …); assay: FACS, MJ20 cells; EC50 fold vs T2U0.E44-1
Procedure: as §1

| Binder | EC50 [1] [nM] | EC50 [2] [nM] | Human CD8+ T Potency EC50 (STAT5 phosphorylation) [3] [nM] | Human CD8+ T Potency reduction [3] [fold] | Human Treg Potency EC50 (STAT5 phosphorylation) [4] [nM] | Human Treg Potency reduction [4] [fold] | Affinity reduction [5] [fold] | Affinity reduction [6] [fold] | EC50 [7] [nM] | EC50 [8] [nM] | Potency in human CD8+ T EC50 [9] [nM] | Potency reduction (CD8+ T) [9] [fold] | Potency in human Treg EC50 [10] [nM] | Potency reduction (Treg) [10] [fold] | Affinity reduction [11] [fold] | Affinity reduction [12] [fold] |
| --- | --- | --- | --- | --- | --- | --- | --- | --- | --- | --- | --- | --- | --- | --- | --- | --- |
| B1 | ~470 | 2740 | 312 | 30.3 | 54.9 | 4620 | 18.8 | 91.6 |  |  |  |  |  |  |  |  |
| B2 | 472 | ~310 | 251 | 24.4 | 31.2 | 2620 | 18.9 | 44.3 |  |  |  |  |  |  |  |  |
| B3 | 398 | 522 | 185 | 18 | 0.53 | 44.5 | 15.9 | 74.6 |  |  |  |  |  |  |  |  |
| B4 | 336 | 232 | 323 | 31.4 | 2.06 | 173 | 13.5 | 33.1 |  |  |  |  |  |  |  |  |
| B5 |  |  |  |  |  |  |  |  | 720 | 60.9 | 180 | 17.7 | 0.21 | 104 | 13.7 | 1.5 |
| B6 |  |  |  |  |  |  |  |  | 576 | 92.8 | 10.7 | 1.1 | 0.073 | 37.1 | 10.9 | 2.2 |
| B7 |  |  |  |  |  |  |  |  | 1320 | 98.5 | ~12.2 |  | 0.1 | 52.2 | 25.1 | 2.4 |
| B8 |  |  |  |  |  |  |  |  |  | 201 | 268 | 26.3 | 5 | 2540 | 400000 | 4.8 |
| B9 |  |  |  |  |  |  |  |  | 355 | 74200 | 99.9 | 9.8 | 2 | 1020 | 6.8 | 1770 |
